Publication PMC3183262

Tests used:
Test in all cases: Ni-NTA pull-down of fluorescent DNA with competition, filter plate
[1] = target: IF2D1-Oct4-R9 (human, UniProt Q01860 1-360)
[2] = target: IF2D1-Sox2-R9 (human, UniProt P48431 1-317)
[3] = target: IF2D1-Klf4-R9 (human, UniProt O43474 1-513)
Chain of IF2D1-Klf4-R9 (O43474 whole entry): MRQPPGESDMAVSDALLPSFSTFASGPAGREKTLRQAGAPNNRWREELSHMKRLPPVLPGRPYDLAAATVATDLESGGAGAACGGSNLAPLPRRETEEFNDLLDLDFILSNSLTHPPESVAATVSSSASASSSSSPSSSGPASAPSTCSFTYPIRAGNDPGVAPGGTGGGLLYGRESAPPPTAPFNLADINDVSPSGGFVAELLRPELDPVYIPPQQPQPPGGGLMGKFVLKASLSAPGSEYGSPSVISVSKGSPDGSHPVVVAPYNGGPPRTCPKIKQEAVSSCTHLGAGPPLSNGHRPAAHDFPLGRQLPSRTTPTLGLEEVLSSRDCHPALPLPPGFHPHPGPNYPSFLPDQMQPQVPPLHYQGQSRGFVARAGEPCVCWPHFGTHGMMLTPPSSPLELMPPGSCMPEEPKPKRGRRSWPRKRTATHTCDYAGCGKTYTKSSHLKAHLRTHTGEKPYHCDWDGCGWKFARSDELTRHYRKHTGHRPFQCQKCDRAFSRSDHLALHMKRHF

Chain of IF2D1-Oct4-R9 (Q01860 whole entry): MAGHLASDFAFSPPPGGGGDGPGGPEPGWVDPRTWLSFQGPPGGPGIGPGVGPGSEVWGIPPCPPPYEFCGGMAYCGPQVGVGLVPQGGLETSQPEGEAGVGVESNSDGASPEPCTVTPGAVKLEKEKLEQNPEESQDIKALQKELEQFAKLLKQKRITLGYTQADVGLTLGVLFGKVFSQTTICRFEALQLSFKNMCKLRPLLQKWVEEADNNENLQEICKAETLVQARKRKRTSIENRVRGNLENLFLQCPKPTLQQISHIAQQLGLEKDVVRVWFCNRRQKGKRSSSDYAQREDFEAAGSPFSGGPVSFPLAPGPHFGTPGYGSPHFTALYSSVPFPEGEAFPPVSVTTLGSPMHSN
Chain of IF2D1-Sox2-R9 (P48431 whole entry): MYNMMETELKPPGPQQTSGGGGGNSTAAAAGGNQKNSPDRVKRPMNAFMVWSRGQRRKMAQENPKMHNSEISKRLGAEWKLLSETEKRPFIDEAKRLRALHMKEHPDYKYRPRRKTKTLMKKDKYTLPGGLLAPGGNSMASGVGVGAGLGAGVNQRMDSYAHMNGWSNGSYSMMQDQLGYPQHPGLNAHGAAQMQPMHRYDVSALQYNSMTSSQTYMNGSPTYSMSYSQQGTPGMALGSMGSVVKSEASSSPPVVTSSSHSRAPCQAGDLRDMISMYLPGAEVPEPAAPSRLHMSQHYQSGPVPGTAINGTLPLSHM

B1: Oct4 cognate probe (dsDNA)
DNA 1: CAGAGAGATGCATGTGAGATGCATGTGAGATGCATCG
DNA 2: CGATGCATCTCACATGCATCTCACATGCATCTCTCTG
- binding result [1]: binds

B2: Sox2 cognate probe (dsDNA)
DNA 1: CAGAGGACAAAGGTGGACAAAGGTGGACAAAGCG
DNA 2: CGCTTTGTCCACCTTTGTCCACCTTTGTCCTCTG
- binding result [2]: binds

B3: Klf4 cognate probe (dsDNA)
DNA 1: CAGAGAACCCCACCCATAAACCCCACCCATAAACCCCACCCCG
DNA 2: CGGGGTGGGGTTTATGGGTGGGGTTTATGGGTGGGGTTCTCTG
- binding result [3]: binds
